From patent publication US11773160 come the findings set out here.

Bounds are passed on as bounds.

Test [1] addresses IL-2R on murine splenocytes (C57BL/6). The test can be described thus: cell-based or functional assay.
Test [2] addresses trimeric IL-2 receptor on HEK-Blue IL-2 reporter cells (UniProt P01589). The test can be described thus: cell-based or functional assay.

Chain of trimeric IL-2 receptor on HEK-Blue IL-2 reporter cells (P01589 22-272 limits assumed, chain 1 of 3): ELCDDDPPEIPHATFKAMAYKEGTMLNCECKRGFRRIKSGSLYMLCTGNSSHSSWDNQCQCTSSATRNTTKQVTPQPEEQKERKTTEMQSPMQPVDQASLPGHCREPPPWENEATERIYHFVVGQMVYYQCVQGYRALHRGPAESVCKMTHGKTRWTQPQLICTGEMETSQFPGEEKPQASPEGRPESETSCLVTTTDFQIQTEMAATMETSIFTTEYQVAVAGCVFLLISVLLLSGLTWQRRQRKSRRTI
Chain of trimeric IL-2 receptor on HEK-Blue IL-2 reporter cells (P14784 27-551 limits assumed, chain 2 of 3, further chain): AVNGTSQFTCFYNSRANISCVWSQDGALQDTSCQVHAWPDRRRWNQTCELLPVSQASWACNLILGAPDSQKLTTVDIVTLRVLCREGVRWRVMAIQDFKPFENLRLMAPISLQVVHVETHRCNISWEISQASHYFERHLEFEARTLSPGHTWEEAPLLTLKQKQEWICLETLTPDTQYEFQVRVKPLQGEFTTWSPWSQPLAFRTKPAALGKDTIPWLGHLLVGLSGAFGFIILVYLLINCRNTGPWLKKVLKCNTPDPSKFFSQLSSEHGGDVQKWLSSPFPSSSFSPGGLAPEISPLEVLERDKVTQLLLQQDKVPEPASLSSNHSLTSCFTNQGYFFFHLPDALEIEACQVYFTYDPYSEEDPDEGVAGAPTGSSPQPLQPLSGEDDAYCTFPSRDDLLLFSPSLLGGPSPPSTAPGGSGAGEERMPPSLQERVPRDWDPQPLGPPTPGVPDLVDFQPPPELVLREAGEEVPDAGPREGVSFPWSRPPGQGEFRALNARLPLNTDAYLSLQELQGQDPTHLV
Chain of trimeric IL-2 receptor on HEK-Blue IL-2 reporter cells (P31785 23-369 limits assumed, chain 3 of 3, further chain): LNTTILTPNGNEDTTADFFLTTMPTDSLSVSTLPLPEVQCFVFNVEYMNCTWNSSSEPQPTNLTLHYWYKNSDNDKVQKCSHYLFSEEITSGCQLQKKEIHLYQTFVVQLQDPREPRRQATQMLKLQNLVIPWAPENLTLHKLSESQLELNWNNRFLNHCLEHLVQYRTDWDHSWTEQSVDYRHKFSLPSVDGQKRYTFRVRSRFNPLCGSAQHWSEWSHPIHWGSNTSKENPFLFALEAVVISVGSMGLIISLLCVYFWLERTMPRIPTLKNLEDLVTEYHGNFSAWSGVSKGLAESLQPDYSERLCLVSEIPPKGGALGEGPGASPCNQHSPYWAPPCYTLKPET

In test [1], “Proleukin (aldesleukin) (from UniProt P60568 22-153) (ligand)” registered an EC50 CD8 cells (nM), pSTAT5 MFI of 4.1 nM; an EC50 NK cells (nM), pSTAT5 MFI of 1.4 nM; an EC50 Treg cells (nM), pSTAT5 MFI below 0.016 nM. The same substance yielded an EC50 (M), SEAP of HEK-Blue IL-2 reporter cells in test [2] of 4.28e-12 M.
